Results on 142 substances are retold here after the supplement of paper PMC12042874.

± gives the uncertainty stated by the source.

This series in a line: amyloid nucleation score (Sup35N fusion, yeast selection) (log enrichment); library NNK1; higher = more nucleation; inactive = no reads after selection. Summed up: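 Output and input plasmid inserts were sequenced by Illumina after psi-negative yeast carrying Sup35N fused to peptides of 20 random codons had been induced 24 hours with 100 μM copper sulfate and grown 7 days at 30°C on medium lacking adenine and uracil. The nucleation score is the DiMSum log enrichment of output over input reads, centred on the mode score of non-aggregating sequences. Sequences with under 100 input reads were excluded.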
Take YHNGDYCCVQFTTGSWVVRW: the amyloid nucleation score was found to be 0.391 ± 0.28.

Take LFCVSDSPCVCGRHSISYDW: the amyloid nucleation score was -0.601 ± 0.9.

ILIRNIMCSGSVSLSNLGSG came in with an amyloid nucleation score of -0.134 ± 1.

For the substance LGYIEKFWVGGHYLFLPTIY, the amyloid nucleation score was 0.073 ± 1.5.

The substance CRCYNWFRWSLMS returned an amyloid nucleation score of -0.07 ± 0.26.

For the substance DLRSSGFDTELILQVSVQLL, the amyloid nucleation score was -0.264 ± 0.59.

Substance VHNTRYSHVPNKKMRSVIRK displayed an amyloid nucleation score of 1.44 ± 0.42.

Regarding CSHANETW, the amyloid nucleation score came out at 0.593 ± 0.55.

GVTSR showed an amyloid nucleation score of 1.25 ± 0.72.

VALDIGFSWALSRLWLKRHF yielded an amyloid nucleation score of 0.095 ± 0.29.

TVYIG: the amyloid nucleation score was 0.258 ± 0.3.

SINVL gave an amyloid nucleation score of -1.03 ± 0.55.

LFRGDGFRKLLFWNSSTFET showed an amyloid nucleation score of 2.67 ± 0.12.

Substance FIWSVTYSGP showed an amyloid nucleation score of 1.48 ± 0.72.

Take ARFRYVESSRQMSMNVVCLT: the amyloid nucleation score amounted to 0.194 ± 0.38.

Consider NDLFMESLL, for which the amyloid nucleation score stood at 0.025 ± 0.43.

On to FLCEAFDQGNLVIIDP, for which the amyloid nucleation score was -0.502 ± 0.46.

The substance YWWDIRWGEAGSRERRVELG had an amyloid nucleation score of 0.078 ± 0.53.

In the case of CRLHVNGLVIVCASWKCGA, the amyloid nucleation score was 3.76 ± 0.1.

For NSKCSLIQCTGPLVRERRSY, the amyloid nucleation score stood at 0.058 ± 0.31.

IWRTLWMWSVGTSTNPVHSL yielded an amyloid nucleation score of -0.088 ± 0.49.

Substance YTNLAT displayed an amyloid nucleation score of 0.251 ± 0.5.

LVMTNIVLRSVKERVHRLLR: the amyloid nucleation score was -0.46 ± 0.81.

Regarding IIYDLLCYSWRMFWL, the amyloid nucleation score turned out to be 2.27 ± 0.1.

YTDAIYHPIPRTGMYSWC came in with an amyloid nucleation score of -0.194 ± 0.34.

VVKVWPYYSYVSMV showed an amyloid nucleation score of -0.114 ± 0.55.

The substance IALSTYCRNTDSPSSSGSCY returned an amyloid nucleation score of -0.245 ± 0.77.

Substance YGLMVVVKVS returned an amyloid nucleation score of 6.666 ± 0.043.

FRRYLWFRDRPGFCCFRLMQ: the amyloid nucleation score was -0.46 ± 1.5.

SGMRRFRWLEVFSTDQRLEA: the amyloid nucleation score result was “inactive”.

Turning to VLWTLVKIPHFTPNIMFRYY, the amyloid nucleation score is 0.053 ± 1.1.

The substance CYVNLTFPVLVEACTASFTD gave an amyloid nucleation score of 6.722 ± 0.055.

For ILEEYYLCIWLEVAWHICHA, the amyloid nucleation score is -0.571 ± 0.8.

Take SYRFFRGMMYLSHVIDLQSR: the amyloid nucleation score was -0.307 ± 1.1.

On to MGNIVTLHFSHVGHRYSKWV, for which the amyloid nucleation score entry is “inactive”.

The substance EKIQINQKG returned an amyloid nucleation score of 1.04 ± 0.66.

In the case of GMHLVKQVQGYRVRAEYSLF, the amyloid nucleation score stood at 0.98 ± 0.92.

FLSYDMLYVKLT yielded an amyloid nucleation score of 2.44 ± 0.16.

The substance ILYTNRMCLWSKTSNFLPLR yielded an amyloid nucleation score of -0.318 ± 0.29.

Regarding SGTIYWLTDQSDFILLVMRD, the amyloid nucleation score is -1.26 ± 0.47.

The substance RVMFACF came in with an amyloid nucleation score of 0.15 ± 0.37.

The substance SRYWKFRCTFSTKFESTKRS yielded an amyloid nucleation score of 3.95 ± 0.17.

Substance GYWPNKRWSRMKPIYPHSNV showed an amyloid nucleation score of 1.34 ± 0.18.

With YIYYSNFCPDRLIVFINAMT, the amyloid nucleation score entry was “inactive”.

The substance LTRVWSVTCVCSFGRPYK displayed an amyloid nucleation score of 2.13 ± 0.27.

With VITWEWFRFRRRFGKMEGCL, the amyloid nucleation score was 1.24 ± 0.28.

LIFVKDVTLVMHGEERYRRS gave an amyloid nucleation score of 5.508 ± 0.049.

On to LGICLLCTDIWDRVGNLCSL, for which the amyloid nucleation score was -0.041 ± 0.33.

In the case of HSVVLILCLAL, the amyloid nucleation score is 0.057 ± 1.2.

In turn, PTVYSDYTCSTFMWISD registered an amyloid nucleation score of 0.299 ± 0.6.

FQASSLTGPH gave an amyloid nucleation score of -0.574 ± 0.36.

As for PLAVVVYDNHRRMGHHVRHG, the amyloid nucleation score was determined as 0.807 ± 0.63.

For YVRIVIAYFKFSKQFSSQLV, the amyloid nucleation score is 0.089 ± 0.22.

For the substance GYSIDIP, the amyloid nucleation score entry is “inactive”.

Consider CRDVY, for which the amyloid nucleation score is 1.92 ± 0.51.

Take MRVGIWDKMRSLRCDISAC: the amyloid nucleation score was found to be 0.293 ± 0.66.

Consider RYTFVITVYKIDDSSEMSWV, for which the amyloid nucleation score amounted to 0.82 ± 0.25.

In turn, GKFSDSHIVA displayed an amyloid nucleation score of 0.308 ± 0.46.

For the substance PLAPMFRLWENSVRYIAKLW, the amyloid nucleation score turned out to be 1.22 ± 0.64.

In turn, GWCYSDVVMLPF came in with an amyloid nucleation score of -0.141 ± 0.34.

ANELFTVDKKSVGYIPTHTL gave an amyloid nucleation score of 0.445 ± 0.56.

Substance AWDVLMHM had an amyloid nucleation score of 0.248 ± 0.49.

For the substance LMKCCNVMGCGDDA, the amyloid nucleation score is 2.45 ± 0.15.

In the case of TNWVWELL, the amyloid nucleation score is -0.544 ± 1.9.

As to VNFILNF, the amyloid nucleation score came to 5.41 ± 0.066.

Turning to MQFCVEYTRPVRYQLWGSLM, the amyloid nucleation score is 0.327 ± 0.83.

Consider YMASDEVNI, for which the amyloid nucleation score was -0.232 ± 0.26.

SPRYQSVWEFVSFQDCTSRW: the amyloid nucleation score came out at 0.118 ± 1.2.

SLWNDFHMVAVYLVTLSSVD showed an amyloid nucleation score of 0.895 ± 0.79.

CCLTWAPTRDPFCLVTGVCR displayed an amyloid nucleation score of 0.193 ± 1.1.

FRSSFGMTHYWEWRASSGRN returned an amyloid nucleation score of 0.882 ± 0.2.

Consider FIRCVNSV, for which the amyloid nucleation score was -0.745 ± 2.4.

Regarding YQYGAWNSANVSSNN, the amyloid nucleation score was determined as 1.19 ± 0.57.

Turning to FIRASWCSRIYIKFVN, the amyloid nucleation score was 0.587 ± 0.43.

YWIFFNT had an amyloid nucleation score of 3.16 ± 0.13.

Substance GYFDMFTKIVVL came in with an amyloid nucleation score of 0.856 ± 0.45.

The substance CYLLQWTSFCQQAFSNEMGW returned an amyloid nucleation score of 0.267 ± 0.67.

ANDKHLVLGWAQVVTQMDGR came in with an amyloid nucleation score of 0.731 ± 0.86.

For ELYCEVSSKIAGLDLFV, the amyloid nucleation score stood at 0.57 ± 0.78.

In turn, YSVMYMQSFFDKWLSTSAFR showed an amyloid nucleation score of -1.17 ± 1.4.

The substance LKIEPRC gave an amyloid nucleation score of -0.512 ± 0.4.

As for TCGRGHVTRGYWGTMCGCNG, the amyloid nucleation score stood at 1.06 ± 0.72.

As to MIMKYLSDVLTRIGHDIFFA, the amyloid nucleation score is -0.872 ± 1.4.

As to FLRSIKWVTVVS, the amyloid nucleation score came out at 0.51 ± 0.28.

ERDCAMISNLSNLTVNY yielded an amyloid nucleation score of -0.616 ± 0.36.

RAKICFVRQGRGFIMHRLLA gave an amyloid nucleation score of 1.39 ± 0.23.

Substance NSSPNKCFAGSQGSFISFWD gave an amyloid nucleation score of -0.599 ± 0.62.

Regarding HSVLVVSVVHCGFKQKRNK, the amyloid nucleation score is 3.98 ± 0.15.

Take CRSGYRFLRRRAGLTVMR: the amyloid nucleation score was -0.413 ± 1.5.

In turn, NVVYMYSSASEYVWHRRLGF came in with an amyloid nucleation score of -0.993 ± 0.43.

The substance VKPLKHPSGYYAMRRFVYNI gave an amyloid nucleation score of -0.566 ± 1.2.

With CTRFKGFAWTSMLRL, the amyloid nucleation score turned out to be 0.21 ± 0.75.

Regarding YDEGHS, the amyloid nucleation score is -0.778 ± 1.2.

Regarding QDFVMSYLCRLKGWLDKRYR, the amyloid nucleation score was 0.472 ± 0.25.

In turn, DVLLPSLTEVAINFSSVTLK yielded an amyloid nucleation score of -0.242 ± 0.41.

Take SFVSRGCSYCC: the amyloid nucleation score was -0.489 ± 0.59.

WLTRFRRGAACRDLLWRGER: the amyloid nucleation score is -0.096 ± 1.4.

The substance GSSKNFH showed an amyloid nucleation score of 0.972 ± 0.43.

On to EGSQLSPAWFGYRDDGFTTM, for which the amyloid nucleation score was determined as 0.904 ± 1.

Consider ISSRRCVRED, for which the amyloid nucleation score entry is “inactive”.

In the case of RIVYLCSSGCVRKCWLLCSG, the amyloid nucleation score was 2.29 ± 0.24.

With RVIPAAVISHYVK, the amyloid nucleation score was -0.143 ± 1.7.

Substance TNNSWCFFLRLGYT showed an amyloid nucleation score of 5.05 ± 0.076.

For GLLSK, the amyloid nucleation score is -0.062 ± 0.56.

Turning to LCFCVKVS, the amyloid nucleation score result is “inactive”.

For the substance KAIRMLFSVMIVKR, the amyloid nucleation score entry is “inactive”.

Turning to SVTLIGFILDLRTGHILWYK, the amyloid nucleation score is -0.423 ± 0.62.

The substance YRAAQGHLASELYGLVTV yielded an amyloid nucleation score of 0.36 ± 0.69.

SDKAMHCGCVLH: the amyloid nucleation score is -0.891 ± 0.56.

Turning to SSCVTFSYMKSVFRFLPCWW, the amyloid nucleation score turned out to be 1.96 ± 0.092.

Regarding GVESLLCYASPLVSWAIFAD, the amyloid nucleation score was -0.424 ± 0.28.

In turn, CVIDRWGDIYSNHEGNRSLL showed an amyloid nucleation score of -0.025 ± 0.32.

AHSANSKIVSFRMLDDYRPD showed an amyloid nucleation score of 1.1 ± 0.39.

AKVCLKSVTQFTTHLLMSRG: the amyloid nucleation score was -0.009 ± 0.77.

ITPTYGT: the amyloid nucleation score was -0.023 ± 0.39.

As to CVFRCVLVKWSVNMVLLLWF, the amyloid nucleation score was determined as 0.536 ± 0.3.

The substance IVNAKLSWSYPGIIRLCHCE gave an amyloid nucleation score of 0.43 ± 0.28.

The substance RVSPFISNTFVVNSKETHGV showed an amyloid nucleation score of 4.56 ± 0.056.

HRISASTLCVIMALRFTSWR displayed an amyloid nucleation score of 1.42 ± 0.44.

TRRFR: the amyloid nucleation score is -0.181 ± 0.41.

FISPFCIVSYIIC: the amyloid nucleation score stood at 5.846 ± 0.054.

SVGFDDGPRSGTLNGFVSRR: the amyloid nucleation score is -0.262 ± 0.6.

As for FIVFISFSFWRVTGIR, the amyloid nucleation score is -0.139 ± 0.59.

Take SRIAMS: the amyloid nucleation score came to 0.368 ± 1.

In turn, MKDSGCPSGNNTALEGASLI displayed an amyloid nucleation score of 0.269 ± 0.49.

In turn, KRFLSYWRFSWGWYIAQACG had an amyloid nucleation score of -0.68 ± 1.4.

SQNVPDCVLKTLRFDVPCCR registered an amyloid nucleation score of 1.14 ± 0.4.

In turn, LLNMCNNESTLERNPF returned an amyloid nucleation score of 1.93 ± 0.37.

TVTYLLCYYDSALYRCATGL yielded an amyloid nucleation score of 5.553 ± 0.052.

Take RYYGLFVYVARIYSALRSCK: the amyloid nucleation score is -0.104 ± 0.33.

In turn, QKKSLVRGKGES yielded an amyloid nucleation score of -0.145 ± 0.48.

Substance INSTEIPFDPAVKL had an amyloid nucleation score of -0.908 ± 0.79.

Take FYRQFHHLGEDPLH: the amyloid nucleation score was -0.583 ± 0.53.

Consider YEKMTRFNVGKCHMVHFSLP, for which the amyloid nucleation score is -0.376 ± 1.4.

In turn, IRDRMLMCDGKRLNTLLEHI displayed an amyloid nucleation score of 0.145 ± 0.49.

On to LFSNTNK, for which the amyloid nucleation score entry was “inactive”.

On to GVFEPCRVRSFMHIVSIADR, for which the amyloid nucleation score was -0.306 ± 1.7.

RWSFSSTY yielded an amyloid nucleation score of 3.69 ± 0.085.

Take RRGGGGSSIFLMHTAWILLE: the amyloid nucleation score is 1.03 ± 0.34.

In turn, AIQYHNWGSEACLWHERESG displayed an amyloid nucleation score of 0.225 ± 0.26.

As for CYNNSCDKWGWASM, the amyloid nucleation score is 1.22 ± 0.53.

Turning to YTVRGRDYNGAM, the amyloid nucleation score is -1.3 ± 2.4.
